Test results as given in patent publication US20200262877A1, “ION CHANNEL-BINDING PEPTIDES AND METHODS OF USE THEREOF” (priority 2017, published 2020).

Legend:
α4β2 = target: T1, α4β2 (Homo sapiens, UniProt P17787+P43681); assay: Ion channel panel (IonWorks Barracuda): α4β2; assay type: cell-based; details: 100% = no change, <100% = inhibition
T1 construct: host or cells: HEK293 or CHO
How it was run: (§1)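 Transfected HEK293 or CHO cells were exposed for at least 5 min to peptides at 200 nM and 20 μM final, tested in duplicate, in HEPES-buffered physiological saline. Activation was taken as peptide-plus-agonist current over control current ×100, and inhibition as 1 minus that ratio ×100. Each channel's control was its own reference compound.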

5HT3a = target: T2, 5HT3a (Homo sapiens, UniProt P46098); assay: Ion channel panel (IonWorks Barracuda): 5HT3a; assay type: cell-based
T2 construct: host or cells: HEK293 or CHO
T2 sequence (P46098 whole entry, looked up): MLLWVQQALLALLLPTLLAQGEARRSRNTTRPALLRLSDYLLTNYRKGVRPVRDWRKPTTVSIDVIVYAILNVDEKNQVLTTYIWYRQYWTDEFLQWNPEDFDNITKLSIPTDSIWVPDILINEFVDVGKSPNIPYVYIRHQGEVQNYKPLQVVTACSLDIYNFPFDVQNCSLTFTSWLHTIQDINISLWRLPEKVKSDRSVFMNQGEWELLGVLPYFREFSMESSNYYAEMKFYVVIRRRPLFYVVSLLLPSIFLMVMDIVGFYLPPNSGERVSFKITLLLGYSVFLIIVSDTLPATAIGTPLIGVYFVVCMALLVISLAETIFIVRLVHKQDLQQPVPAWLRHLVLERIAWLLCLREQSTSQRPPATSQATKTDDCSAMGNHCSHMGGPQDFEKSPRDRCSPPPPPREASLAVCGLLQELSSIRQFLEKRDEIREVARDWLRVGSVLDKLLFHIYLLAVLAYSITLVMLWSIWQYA
How it was run: as §1

hERG = hERG (Homo sapiens, UniProt Q12809); assay: in vitro; details: 100% = no change, <100% = inhibition
How it was run: as §1

Nav1.5 = Nav1.5 (Homo sapiens, UniProt Q14524); assay: in vitro; details: 100% = no change; for Activity of Nav1.5 with peptide, expressed as a percentage of the reference compound: peptide at 0.2 μM; for Activity of Nav1.5 with peptide (percentage of the reference compound): peptide at 20 μM
How it was run: as §1

GABA = assay: Ion channel panel (IonWorks Barracuda): GABA; assay type: cell-based; details: 100% = no change, <100% = inhibition
How it was run: as §1

Kir2.1 = target: T3, Kir2.1 (Homo sapiens, UniProt P63252); assay: Ion channel panel (IonWorks Barracuda): Kir2.1; assay type: cell-based; details: 100% = no change, <100% = inhibition
T3 construct: host or cells: HEK293 or CHO
How it was run: as §1

Cav2.2 = target: T4, Cav2.2 (Homo sapiens, UniProt Q00975); assay: cell-based; details: 100% = no change, <100% = inhibition
T4 construct: host or cells: HEK293 or CHO
How it was run: as §1

Kv2.1 = target: T5, Kv2.1 (Homo sapiens, UniProt Q14721); assay: cell-based; details: 100% = no change, <100% = inhibition
T5 construct: host or cells: HEK293 or CHO
How it was run: as §1

Cav2.1 = target: T6, Cav2.1 (Homo sapiens, UniProt O00555); assay: cell-based; details: 100% = no change, <100% = inhibition
T6 construct: host or cells: HEK293 or CHO
How it was run: as §1

Nav1.7 = target: T7, Nav1.7 (Homo sapiens, UniProt Q15858); assay: cell-based; assay type: cell-based; details: 100% = no change; for Activity of Nav1.7 with peptide, expressed as a percentage of the reference compound: peptide at 0.2 μM; for Activity of Nav1.7 with peptide (percentage of the reference compound): peptide at 20 μM
T7 construct: host or cells: HEK293 or CHO

α3β4 = target: T8, α3β4 (Homo sapiens, UniProt P30926+P32297); assay: Ion channel panel (IonWorks Barracuda): α3β4; assay type: cell-based; details: 100% = no change, <100% = inhibition
T8 construct: host or cells: HEK293 or CHO
How it was run: as §1

TRPA1 = target: T9, TRPA1 (Homo sapiens, UniProt O75762); assay: Ion channel panel (IonWorks Barracuda): TRPA1; assay type: cell-based; details: 100% = no change, <100% = inhibition
T9 construct: host or cells: HEK293 or CHO
How it was run: as §1

NR2B = target: T10, NR2B (Homo sapiens, UniProt Q13224); assay: Ion channel panel (IonWorks Barracuda): NR2B; assay type: cell-based; details: 100% = no change, <100% = inhibition
T10 construct: host or cells: HEK293 or CHO
How it was run: as §1

Kv1.2 = target: T11, Kv1.2 (Homo sapiens, UniProt P16389); assay: cell-based; assay type: cell-based; details: 100% = no change, <100% = inhibition
T11 construct: host or cells: HEK293 or CHO
How it was run: as §1

Kv1.1 = target: T12, Kv1.1 (Homo sapiens, UniProt Q09470); assay: cell-based; assay type: cell-based; details: 100% = no change, <100% = inhibition
T12 construct: host or cells: HEK293 or CHO
How it was run: as §1

Kv1.3 = target: T13, Kv1.3 (Homo sapiens, UniProt P22001); assay: cell-based; assay type: cell-based; details: 100% = no change, <100% = inhibition
T13 construct: host or cells: HEK293 or CHO
How it was run: as §1

TRPV1 = target: T14, TRPV1 (Homo sapiens, UniProt Q8NER1); assay: Ion channel panel (IonWorks Barracuda): TRPV1; assay type: cell-based; details: 100% = no change, <100% = inhibition
T14 construct: host or cells: HEK293 or CHO
How it was run: as §1

NR2A = target: T15, NR2A (Homo sapiens, UniProt Q12879); assay: Ion channel panel (IonWorks Barracuda): NR2A; assay type: cell-based; details: 100% = no change, <100% = inhibition
T15 construct: host or cells: HEK293 or CHO
How it was run: as §1

[1] = first of two Nav1.5 columns (probably TP1)
[2] = second of two Nav1.5 columns (probably TP2)
[3] = first of two Nav1.7 columns (probably TP1)
[4] = second of two Nav1.7 columns (probably TP2)

Chain of Nav1.5 (Q14524 whole entry): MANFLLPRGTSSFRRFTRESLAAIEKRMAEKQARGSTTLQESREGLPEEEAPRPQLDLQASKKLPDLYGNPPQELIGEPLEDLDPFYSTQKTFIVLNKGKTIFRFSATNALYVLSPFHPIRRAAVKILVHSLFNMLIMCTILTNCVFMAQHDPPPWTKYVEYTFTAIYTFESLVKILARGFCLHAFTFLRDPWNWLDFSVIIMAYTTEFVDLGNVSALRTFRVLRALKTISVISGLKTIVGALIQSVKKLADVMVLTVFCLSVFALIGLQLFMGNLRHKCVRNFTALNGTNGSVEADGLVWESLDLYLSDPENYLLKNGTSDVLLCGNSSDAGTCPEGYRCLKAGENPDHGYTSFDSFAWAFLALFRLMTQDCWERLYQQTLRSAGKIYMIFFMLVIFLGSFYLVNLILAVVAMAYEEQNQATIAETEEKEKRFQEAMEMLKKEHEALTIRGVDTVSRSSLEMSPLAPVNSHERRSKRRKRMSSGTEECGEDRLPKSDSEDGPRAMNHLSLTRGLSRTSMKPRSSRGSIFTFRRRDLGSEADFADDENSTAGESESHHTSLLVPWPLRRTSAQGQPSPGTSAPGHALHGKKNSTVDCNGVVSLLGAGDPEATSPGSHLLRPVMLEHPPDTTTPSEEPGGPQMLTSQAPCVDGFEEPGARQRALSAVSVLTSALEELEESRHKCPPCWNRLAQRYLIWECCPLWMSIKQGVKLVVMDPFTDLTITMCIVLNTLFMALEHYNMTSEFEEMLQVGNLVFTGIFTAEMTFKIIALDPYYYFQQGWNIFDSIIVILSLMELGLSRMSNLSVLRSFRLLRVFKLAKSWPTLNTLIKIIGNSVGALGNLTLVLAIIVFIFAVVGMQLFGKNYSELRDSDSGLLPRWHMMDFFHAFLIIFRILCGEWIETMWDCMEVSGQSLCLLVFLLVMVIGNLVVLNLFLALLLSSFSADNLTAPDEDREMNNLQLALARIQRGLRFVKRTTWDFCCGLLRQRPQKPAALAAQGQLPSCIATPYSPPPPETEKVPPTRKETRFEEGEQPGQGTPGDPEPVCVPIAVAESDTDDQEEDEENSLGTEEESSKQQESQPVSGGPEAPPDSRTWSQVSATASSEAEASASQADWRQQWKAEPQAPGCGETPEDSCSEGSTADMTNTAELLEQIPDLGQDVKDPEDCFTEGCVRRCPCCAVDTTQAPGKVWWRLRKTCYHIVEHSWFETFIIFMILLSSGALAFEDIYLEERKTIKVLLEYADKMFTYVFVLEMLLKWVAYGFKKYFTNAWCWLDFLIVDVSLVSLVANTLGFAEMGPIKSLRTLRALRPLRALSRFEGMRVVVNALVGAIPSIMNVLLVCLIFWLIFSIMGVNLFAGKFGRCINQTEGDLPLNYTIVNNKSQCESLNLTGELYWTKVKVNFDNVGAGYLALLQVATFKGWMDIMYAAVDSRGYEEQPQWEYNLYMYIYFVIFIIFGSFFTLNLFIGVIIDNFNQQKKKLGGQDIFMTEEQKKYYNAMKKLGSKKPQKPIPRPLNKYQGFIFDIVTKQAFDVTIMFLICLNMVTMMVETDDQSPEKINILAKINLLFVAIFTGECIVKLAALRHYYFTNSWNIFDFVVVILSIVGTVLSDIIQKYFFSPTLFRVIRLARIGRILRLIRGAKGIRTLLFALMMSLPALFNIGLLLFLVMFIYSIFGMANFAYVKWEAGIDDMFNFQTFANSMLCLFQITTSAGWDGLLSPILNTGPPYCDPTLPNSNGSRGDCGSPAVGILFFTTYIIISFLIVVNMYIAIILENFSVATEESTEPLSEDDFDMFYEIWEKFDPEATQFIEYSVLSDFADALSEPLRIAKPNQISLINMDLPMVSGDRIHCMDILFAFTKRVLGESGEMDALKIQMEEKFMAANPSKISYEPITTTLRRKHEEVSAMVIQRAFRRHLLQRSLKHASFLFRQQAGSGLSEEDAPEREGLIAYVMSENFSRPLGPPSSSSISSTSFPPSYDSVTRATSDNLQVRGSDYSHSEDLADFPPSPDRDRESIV
T7 sequence (Q15858 whole entry): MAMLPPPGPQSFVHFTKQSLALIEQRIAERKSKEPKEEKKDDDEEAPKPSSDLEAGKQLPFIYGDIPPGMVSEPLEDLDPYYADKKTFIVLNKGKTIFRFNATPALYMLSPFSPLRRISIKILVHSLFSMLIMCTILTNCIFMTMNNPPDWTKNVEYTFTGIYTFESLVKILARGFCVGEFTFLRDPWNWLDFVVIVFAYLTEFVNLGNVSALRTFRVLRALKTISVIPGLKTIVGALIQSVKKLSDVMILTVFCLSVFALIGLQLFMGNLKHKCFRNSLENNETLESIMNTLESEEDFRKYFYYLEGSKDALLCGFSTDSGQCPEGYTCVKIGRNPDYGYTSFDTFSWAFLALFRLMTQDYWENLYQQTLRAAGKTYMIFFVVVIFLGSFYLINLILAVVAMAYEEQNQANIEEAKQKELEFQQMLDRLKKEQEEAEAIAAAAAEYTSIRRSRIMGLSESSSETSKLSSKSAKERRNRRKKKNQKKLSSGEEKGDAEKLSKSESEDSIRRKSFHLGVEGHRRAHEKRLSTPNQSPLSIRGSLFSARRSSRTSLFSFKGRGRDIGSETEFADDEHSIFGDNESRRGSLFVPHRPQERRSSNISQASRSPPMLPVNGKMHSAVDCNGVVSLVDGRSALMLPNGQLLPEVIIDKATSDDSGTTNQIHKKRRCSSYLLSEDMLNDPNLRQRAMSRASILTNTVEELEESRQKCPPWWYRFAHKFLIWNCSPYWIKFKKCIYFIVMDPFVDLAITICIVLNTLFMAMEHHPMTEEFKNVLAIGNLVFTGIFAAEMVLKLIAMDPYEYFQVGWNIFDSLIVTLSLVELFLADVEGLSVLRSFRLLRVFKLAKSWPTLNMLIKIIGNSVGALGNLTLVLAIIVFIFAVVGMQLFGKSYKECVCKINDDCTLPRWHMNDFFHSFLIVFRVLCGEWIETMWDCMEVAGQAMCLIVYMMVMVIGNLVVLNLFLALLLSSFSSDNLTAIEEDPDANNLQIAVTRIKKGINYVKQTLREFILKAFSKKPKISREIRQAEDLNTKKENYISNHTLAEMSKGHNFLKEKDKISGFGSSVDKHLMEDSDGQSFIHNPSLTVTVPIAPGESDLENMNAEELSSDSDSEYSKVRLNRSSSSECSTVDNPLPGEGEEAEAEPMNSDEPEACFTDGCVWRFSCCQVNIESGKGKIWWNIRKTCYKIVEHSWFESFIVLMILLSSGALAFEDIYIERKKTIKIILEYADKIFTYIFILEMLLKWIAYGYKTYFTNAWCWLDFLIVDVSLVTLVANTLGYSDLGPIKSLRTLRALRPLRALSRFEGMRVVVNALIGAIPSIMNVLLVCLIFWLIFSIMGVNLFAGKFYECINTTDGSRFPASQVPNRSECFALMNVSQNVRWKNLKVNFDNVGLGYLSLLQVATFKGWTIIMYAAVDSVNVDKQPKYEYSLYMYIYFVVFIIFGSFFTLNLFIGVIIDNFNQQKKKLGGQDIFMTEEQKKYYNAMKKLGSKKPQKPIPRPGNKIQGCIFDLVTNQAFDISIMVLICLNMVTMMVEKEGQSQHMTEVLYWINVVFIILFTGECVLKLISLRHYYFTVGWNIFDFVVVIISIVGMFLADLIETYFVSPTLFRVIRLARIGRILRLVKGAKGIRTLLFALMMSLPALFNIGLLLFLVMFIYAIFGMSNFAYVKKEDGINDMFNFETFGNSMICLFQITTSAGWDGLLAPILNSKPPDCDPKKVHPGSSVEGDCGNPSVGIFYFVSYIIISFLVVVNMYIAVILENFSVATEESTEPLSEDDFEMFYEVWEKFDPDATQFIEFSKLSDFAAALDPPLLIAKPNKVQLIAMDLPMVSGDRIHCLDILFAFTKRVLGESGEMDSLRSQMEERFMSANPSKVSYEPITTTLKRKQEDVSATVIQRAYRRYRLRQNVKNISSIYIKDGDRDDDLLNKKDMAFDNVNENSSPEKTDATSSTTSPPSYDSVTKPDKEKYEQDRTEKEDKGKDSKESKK
T9 sequence (O75762 whole entry): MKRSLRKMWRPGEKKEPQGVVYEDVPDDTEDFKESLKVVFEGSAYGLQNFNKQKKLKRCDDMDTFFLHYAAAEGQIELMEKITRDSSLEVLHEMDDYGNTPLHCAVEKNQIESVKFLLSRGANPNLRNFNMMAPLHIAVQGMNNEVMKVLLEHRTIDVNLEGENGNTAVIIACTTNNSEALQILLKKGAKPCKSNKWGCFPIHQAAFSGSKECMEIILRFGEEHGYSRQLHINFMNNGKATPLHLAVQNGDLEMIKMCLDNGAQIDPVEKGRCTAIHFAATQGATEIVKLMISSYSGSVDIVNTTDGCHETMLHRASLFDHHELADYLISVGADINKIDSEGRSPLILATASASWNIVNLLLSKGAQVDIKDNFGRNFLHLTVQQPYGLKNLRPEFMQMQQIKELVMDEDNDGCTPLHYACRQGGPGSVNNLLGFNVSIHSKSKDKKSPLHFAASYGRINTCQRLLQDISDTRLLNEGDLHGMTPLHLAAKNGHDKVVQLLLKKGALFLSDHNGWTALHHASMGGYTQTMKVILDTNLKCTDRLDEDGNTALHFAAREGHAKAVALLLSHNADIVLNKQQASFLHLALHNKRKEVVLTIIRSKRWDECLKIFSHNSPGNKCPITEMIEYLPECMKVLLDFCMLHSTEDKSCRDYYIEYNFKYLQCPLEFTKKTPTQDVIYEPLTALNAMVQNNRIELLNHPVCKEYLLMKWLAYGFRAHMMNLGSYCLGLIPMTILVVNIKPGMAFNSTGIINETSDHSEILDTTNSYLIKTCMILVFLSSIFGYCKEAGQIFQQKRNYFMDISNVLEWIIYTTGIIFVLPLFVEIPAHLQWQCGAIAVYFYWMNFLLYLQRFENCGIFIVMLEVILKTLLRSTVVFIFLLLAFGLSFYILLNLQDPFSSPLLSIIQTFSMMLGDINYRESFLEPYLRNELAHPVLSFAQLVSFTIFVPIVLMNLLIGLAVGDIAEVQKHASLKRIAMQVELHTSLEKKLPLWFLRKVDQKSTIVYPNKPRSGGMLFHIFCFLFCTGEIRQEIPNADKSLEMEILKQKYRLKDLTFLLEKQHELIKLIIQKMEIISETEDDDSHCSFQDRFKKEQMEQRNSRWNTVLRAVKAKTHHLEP

Substance: 29 (GSVFINVKCRGSPECLPKCKEAIGKSAGKCMNGKCKCYP) [compound 29]
- Activity of a4b2 with peptide, expressed as a percentage of the reference compound (α4β2; peptide at 0.2 μM): 108%
- Activity of a4b2 with peptide (percentage of the reference compound) (α4β2; peptide at 20 μM): 101%
- Activity of 5HT3a with peptide (percentage of the reference compound) (5HT3a): 91%
- Activity of 5HT3a with peptide, expressed as a percentage of the reference compound (5HT3a): 122%
- Activity of hERG with peptide, expressed as a percentage of the reference compound (hERG; peptide at 0.2 μM): 95%
- Activity of hERG with peptide (percentage of the reference compound) (hERG; peptide at 20 μM): 78%
- Activity of Nav1.5 with peptide, expressed as a percentage of the reference compound (Nav1.5; [1]): 110%
- Activity of Nav1.5 with peptide, expressed as a percentage of the reference compound (Nav1.5; [2]): 114%
- Activity of Nav1.5 with peptide (percentage of the reference compound) (Nav1.5; [1]): 103%
- Activity of Nav1.5 with peptide (percentage of the reference compound) (Nav1.5; [2]): 99%
- Activity of GABA with peptide, expressed as a percentage of the reference compound (GABA; peptide at 0.2 μM): 123%
- Activity of GABA with peptide (percentage of the reference compound) (GABA; peptide at 20 μM): 104%
- Activity of Kir2.1 with peptide, expressed as a percentage of the reference compound (Kir2.1; peptide at 0.2 μM): 103%
- Activity of Kir2.1 with peptide (percentage of the reference compound) (Kir2.1; peptide at 20 μM): 97%
- Activity of Cav2.2 with peptide, expressed as a percentage of the reference compound (Cav2.2; peptide at 0.2 μM): 116%
- Activity of Cav2.2 with peptide (percentage of the reference compound) (Cav2.2; peptide at 20 μM): 100%
- Activity of Kv2.1 with peptide, expressed as a percentage of the reference compound (Kv2.1; peptide at 0.2 μM): 91%
- Activity of Kv2.1 with peptide (percentage of the reference compound) (Kv2.1; peptide at 20 μM): 121%
- Activity of Cav2.1 with peptide, expressed as a percentage of the reference compound (Cav2.1; peptide at 0.2 μM): 100%
- Activity of Cav2.1 with peptide (percentage of the reference compound) (Cav2.1; peptide at 20 μM): 111%
- Activity of Nav1.7 with peptide, expressed as a percentage of the reference compound (Nav1.7; [3]): 97%
- Activity of Nav1.7 with peptide, expressed as a percentage of the reference compound (Nav1.7; [4]): 111%
- Activity of Nav1.7 with peptide (percentage of the reference compound) (Nav1.7; [3]): 67%
- Activity of Nav1.7 with peptide (percentage of the reference compound) (Nav1.7; [4]): 62%
- Activity of a3b4 with peptide, expressed as a percentage of the reference compound (α3β4; peptide at 0.2 μM): 108%
- Activity of a3b4 with peptide (percentage of the reference compound) (α3β4; peptide at 20 μM): 98%
- Activity of TRPA1 with peptide, expressed as a percentage of the reference compound (TRPA1; peptide at 0.2 μM): 89%
- Activity of TRPA1 with peptide (percentage of the reference compound) (TRPA1; peptide at 20 μM): 109%
- Activity of NR2B with peptide, expressed as a percentage of the reference compound (NR2B; peptide at 0.2 μM): 101%
- Activity of NR2B with peptide (percentage of the reference compound) (NR2B; peptide at 20 μM): 82%
- Activity of Kv1.2 with peptide, expressed as a percentage of the reference compound (Kv1.2; peptide at 0.2 μM): 77%
- Activity of Kv1.2 with peptide (percentage of the reference compound) (Kv1.2; peptide at 20 μM): 42%
- Activity of Kv1.1 with peptide, expressed as a percentage of the reference compound (Kv1.1; peptide at 0.2 μM): 97%
- Activity of Kv1.1 with peptide (percentage of the reference compound) (Kv1.1; peptide at 20 μM): 64%
- Activity of Kv1.3 with peptide, expressed as a percentage of the reference compound (Kv1.3; peptide at 0.2 μM): 21%
- Activity of Kv1.3 with peptide (percentage of the reference compound) (Kv1.3; peptide at 20 μM): 0%
- Activity of TRPV1 with peptide, expressed as a percentage of the reference compound (TRPV1; peptide at 0.2 μM): 109%
- Activity of TRPV1 with peptide (percentage of the reference compound) (TRPV1; peptide at 20 μM): 86%
- Activity of NR2A with peptide, expressed as a percentage of the reference compound (NR2A; peptide at 0.2 μM): 93%
- Activity of NR2A with peptide (percentage of the reference compound) (NR2A; peptide at 20 μM): 87%
